Data reported in patent US6117653.

What was measured:
Test in all cases: ELISA of pooled CsCl fractions 9-15 of the purified particle
[1] = biological target: purified HBs antigen particle produced from an HBV sequence construct including the pre-S2 region with none of the pre-S1 region and deletions upstream of the S ATG and downstream of the S ATG through the XBaI site, and the S region with deletion of the S ATG (e.g. the construct of FIG. 2A) (Hepatitis B virus (subtype not stated for the construct); Hepatitis B virus (subtype not stated))
[2] = biological target: purified HBs antigen particle produced from an HBV sequence construct including the pre-S2 region with none of the pre-S1 region and deletions upstream of the S ATG and the S region with deletion of the S ATG (e.g., the construct of FIG. 7B) (Hepatitis B virus (subtype not stated for the construct); Hepatitis B virus (subtype not stated))
[3] = biological target: purified HBs antigen particles produced by construct including the entire pre-S1-pre-S2-S region under control of the LTR region of rous sarcoma virus, with additional cotransfection with S (FIG. 13) (Hepatitis B virus (subtype not stated))
[4] = biological target: purified HBs antigen particle produced from an HBV sequence construct including the pre-S1 region with total deletion of pre-S2 and deletions upstream of the pre-S2 ATG and the S region with deletion of the S ATG (e.g., the construct of FIG. 6B) (Hepatitis B virus (subtype not stated for the construct); Hepatitis B virus (subtype not stated))
[5] = biological target: purified HBs antigen particle produced from an HBV sequence construct including the pre-S1 region with total deletion of pre-S2 and deletions upstream of the pre-S2 ATG and the S region with deletion of the S ATG and downstream the S ATG through the XBaI site (e.g. the construct of FIG. 1A) (Hepatitis B virus (subtype not stated for the construct); Hepatitis B virus (subtype not stated))

Substance: anti-pre-S1 monoclonal antibody MA 18/7
- E492 [1]: 0
- E492 [2]: 0
- E492 [3]: 0.125
- E492 [4]: 1.27
- E492 [5]: 0.839
